Measured values as given in paper PMC5426085 (Frontiers in Microbiology, 2017).

How the values were obtained:
[1] = target: FtsZ (SaFtsZ) (Staphylococcus aureus, UniProt P0A031); assay: GTPase assay (phosphate release), […]° light scattering polymerization, TEM, far-UV CD with recombinant purified FtsZ; format: biochemical; details: read-out: % inhibition of GTPase at 8 μg/mL (~15 μM)
[2] = target: the molecule itself; assay: 90° light scattering of polymerization; FtsZ 6 μM in 20 mM Tris pH 7.4, 0.01% Triton X-100; started with 20 mM KCl, 5 mM MgCl2, 1 mM GTP; 37°C; 600 nm; without and with compound 1 (1 to 6 μg/mL); self-assembly into polymers

Row | Molecule | inhibition at 8 µg/mL [1] [%] | binding result [2]
1 | CN1/C(=C/c2cc(/C=C/c3ccc(O)cc3)[n+](C)c3ccccc23)Sc2ccccc21 [compound 1, 2-((E)-4-hydroxystyryl)-1-methyl-4-((Z)-(3-methylbenzo[d]thiazol-2(3H)-ylidene)methyl)quinolin-1-ium iodide] | 58 | –
2 | Staphylococcus aureus FtsZ (natural protein, UniProt P0A031 1-390, looked up, cell division protein FtsZ, Staphylococcus aureus; also called SaFtsZ; filamenting temperature-sensitive mutant Z; source: recombinant; cloned, overexpressed, and purified as described previously (Sun et al., 2014; Li et al., 2015)) MLEFEQGFNHLATLKVIGVGGGGNNAVNRMIDHGMNNVEFIAINTDGQALNLSKAESKIQIGEKLTRGLGAGANPEIGKKAAEESREQIEDAIQGADMVFVTSGMGGGTGTGAAPVVAKIAKEMGALTVGVVTRPFSFEGRKRQTQAAAGVEAMKAAVDTLIVIPNDRLLDIVDKSTPMMEAFKEADNVLRQGVQGISDLIAVSGEVNLDFADVKTIMSNQGSALMGIGVSSGENRAVEAAKKAISSPLLETSIVGAQGVLMNITGGESLSLFEAQEAADIVQDAADEDVNMIFGTVINPELQDEIVVTVIATGFDDKPTSHGRKSGSTGFGTSVNTSSNATSKDESFTSNSSNAQATDSVSERTHTTKEDDIPSFIRNREERRSRRTRR | – | binds
3 | E. coli FtsZ (natural protein, UniProt P0A9A6 1-383, looked up, cell division protein FtsZ, Escherichia coli; also called EcFtsZ; source: recombinant; cloned, overexpressed, and purified as described previously (Sun et al., 2014; Li et al., 2015)) MFEPMELTNDAVIKVIGVGGGGGNAVEHMVRERIEGVEFFAVNTDAQALRKTAVGQTIQIGSGITKGLGAGANPEVGRNAADEDRDALRAALEGADMVFIAAGMGGGTGTGAAPVVAEVAKDLGILTVAVVTKPFNFEGKKRMAFAEQGITELSKHVDSLITIPNDKLLKVLGRGISLLDAFGAANDVLKGAVQGIAELITRPGLMNVDFADVRTVMSEMGYAMMGSGVASGEDRAEEAAEMAISSPLLEDIDLSGARGVLVNITAGFDLRLDEFETVGNTIRAFASDNATVVIGTSLDPDMNDELRVTVVATGIGMDKRPEITLVTNKQVQQPVMDRYQQHGMAPLTQEQKPVAKVVNDNAPQTAKEPDYLDIPAFLRKQAD | – | binds
